According to PMC5823934, “EGF receptor kinase suppresses ciliogenesis through activation of USP8 deubiquitinase” (Nature Communications, 2018):

Target: T1, GST-USP8 (human, UniProt P40818 1-1118)
T1 construct: USP8 deubiquitinase, human cDNA FLJ76940 from the Human Gene and Protein Database, inserted in frame to GST in pGEX-6P-3 (BamHI/XhoI); Wild type; also called bacterially purified GST-USP8; source: E. coli BL21 (DE3), purified (glutathione-sepharose 4B)
T1 sequence (looked up): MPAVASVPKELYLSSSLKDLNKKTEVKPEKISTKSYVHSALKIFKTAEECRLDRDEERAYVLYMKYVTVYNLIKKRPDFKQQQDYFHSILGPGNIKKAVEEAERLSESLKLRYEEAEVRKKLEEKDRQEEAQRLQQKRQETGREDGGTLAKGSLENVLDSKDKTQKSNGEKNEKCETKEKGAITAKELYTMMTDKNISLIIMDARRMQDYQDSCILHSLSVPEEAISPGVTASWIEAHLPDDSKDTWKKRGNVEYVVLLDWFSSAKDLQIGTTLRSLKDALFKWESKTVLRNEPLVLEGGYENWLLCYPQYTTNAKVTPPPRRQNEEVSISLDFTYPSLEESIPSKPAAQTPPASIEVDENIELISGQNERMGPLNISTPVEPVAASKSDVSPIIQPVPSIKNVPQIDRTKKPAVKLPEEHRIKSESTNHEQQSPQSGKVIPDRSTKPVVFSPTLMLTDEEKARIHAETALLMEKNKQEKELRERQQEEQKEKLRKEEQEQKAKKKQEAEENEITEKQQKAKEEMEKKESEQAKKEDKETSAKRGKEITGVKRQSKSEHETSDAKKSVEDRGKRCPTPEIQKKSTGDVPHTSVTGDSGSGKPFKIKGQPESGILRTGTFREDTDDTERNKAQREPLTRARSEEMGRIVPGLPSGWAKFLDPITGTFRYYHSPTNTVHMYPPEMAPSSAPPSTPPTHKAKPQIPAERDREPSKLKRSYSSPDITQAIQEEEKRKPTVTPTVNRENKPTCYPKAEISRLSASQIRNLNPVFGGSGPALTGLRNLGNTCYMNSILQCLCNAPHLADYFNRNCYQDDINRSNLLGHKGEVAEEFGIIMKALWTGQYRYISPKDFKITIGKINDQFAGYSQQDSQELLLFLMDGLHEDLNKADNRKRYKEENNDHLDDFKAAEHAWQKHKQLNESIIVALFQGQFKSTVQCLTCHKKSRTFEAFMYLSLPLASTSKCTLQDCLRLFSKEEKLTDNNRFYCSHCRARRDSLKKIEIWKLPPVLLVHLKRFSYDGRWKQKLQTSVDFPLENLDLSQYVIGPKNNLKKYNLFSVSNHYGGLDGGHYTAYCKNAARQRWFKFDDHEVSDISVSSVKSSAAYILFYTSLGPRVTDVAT
Assay: pull-down; MBP-trichoplein (1 ug) and GST-USP8 (1 ug) in cell lysis buffer (20 mM Tris-HCl pH 7.5, 150 mM NaCl, 2 mM beta-glycerophosphate, 2 mM EGTA, 1% Triton X-100), 2 h at 4 °C; glutathione-sepharose 4B; immunoblot
Conditions: both partners purified

- binding result: binds
B1: MBP-trichoplein (natural protein, human, UniProt Q9BT92 1-498, looked up)
chain: MALPTLPSYWCSQQRLNQQLARQREQEARLRQQWEQNSRYFRMSDICSSKQAEWSSKTSYQRSMHAYQREKMKEEKRRSLEARREKLRQLMQEEQDLLARELEELRLSMNLQERRIREQHGKLKSAKEEQRKLIAEQLLYEHWKKNNPKLREMELDLHQKHVVNSWEMQKEEKKQQEATAEQENKRYENEYERARREALERMKAEEERRQLEDKLQAEALLQQMEELKLKEVEATKLKKEQENLLKQRWELERLEEERKQMEAFRQKAELGRFLRHQYNAQLSRRTQQIQEELEADRRILQALLEKEDESQRLHLARREQVMADVAWMKQAIEEQLQLERAREAELQMLLREEAKEMWEKREAEWARERSARDRLMSEVLTGRQQQIQEKIEQNRRAQEESLKHREQLIRNLEEVRELARREKEESEKLKSARKQELEAQVAERRLQAWEADQQEEEEEEEARRVEQLSDALLQQEAETMAEQGYRPKPYGHPKIAWN
notes: also called recombinant MBP-trichoplein; source: E. coli BL21 CodonPlus RP, purified (amylose resin)
